We go through one molecule from patent US20130058902A1, “DENDRITIC CELL SUBSETS FOR GENERATING INDUCED TOLEROGENIC DENDRITIC CELLS AND RELATED COMPOSITIONS AND METHODS” (Selecta Biosciences, Inc., priority 2011, published 2013).

The assay deals with DCs in the spleen. The experiment in a line: Expansion of spleen DCs in donor mice inoculated with FLT-3 ligand expressing melanoma cells. The assay is classed as in vivo, C57BL/6 mice. To be noted: spleen of syngeneic donor mice inoculated 10 days earlier with FLT-3 ligand expressing melanoma cells. The text has this:
For each treatment day syngeneic donor mice were inoculated 10 days earlier with Fms-like tyrosine kinase 3 (FLT-3) ligand expressing melanoma cells s.s. (performed on days−10, 4, 18 in donor C57BL/6 age-matched mice). Flt3 ligand is a growth factor for DCs and allows for greater total number of DCs to be present in the spleen. This increased the number of DCs more than 10-fold and allowed for more cells to be available for in vitro treatment and in vivo administration.

B1: Flt3 ligand: growth factor for DCs, delivered by FLT-3 ligand expressing melanoma cells inoculated into donor mice (protein, UniProt P49772 27-232, looked up)
Fms-related tyrosine kinase 3 …: GTPDCYFSHSPISSNFKVKFRELTDHLLKDYPVTVAVNLQDEKHCKALWSLFLAQRWIEQLKTVAGSKMQTLLEDVNTEIHFVTSCTFQPLPECLRFVQTNISHLLKDTCTQLLALKPCIGKACQNFSRCLEVQCQPDSSTLLPPRSPIALEATELPEPRPRQLLLLLLLLLPLTLVLLAAAWGLRWQRARRRGELHPGVPLPSHP
As for B1, the “increase of the number of DCs” value is “more than 10 fold”.
